This is an account of results in US5686070A, “Methods for treating bacterial pneumonia” (Genentech, Inc., priority 1995, dated 1997).

As usually defined, the Kd is the concentration at which binding is half-saturated.

The target in data set [1] is T1, recombinant human IL-8, (ser-IL-8)72 (human, UniProt P10145). Kind of data set: competitive binding RIP with unlabeled IL-8, Scatchard analysis.
For data set [2], the target named is T1, recombinant human IL-8, (ser-IL-8)72.
Data set [3] has as its system Human IL-8. Kind of data set: Human IL-8 mediated neutrophil chemotaxis, 96-well chamber, calcein AM-labeled neutrophils. Type of data set: cell-based. The protocol: Human neutrophils were isolated, counted and resuspended at 5×10^6 cells/ml in Hank's balanced salt solution (abbreviated HBSS; without calcium and magnesium) with 0.1% bovine serum albumin. The neutrophils were labeled by adding calcein AM (Molecular Probe, Eugene, Oreg.) at a final concentration of 2.0 μM. Following a 30 minute incubation at 37° C., cells were washed twice with HBSS-BSA and resuspended at 5×10^6 cells/ml.
Chemotaxis experiments were carried out in a Neuro Probe (Cabin John, Md.) 96-well chamber, model MBB96. Experimental samples (buffer only control, IL-8 alone or IL-8 +Fabs) were loaded in a Polyfiltronics 96-well View plate (Neuro Probe Inc.) placed in the lower chamber. […]
The relative number of neutrophils migrating through the filter (Neutrophil migration index) was determined by measuring fluorescence intensity of the filter and the fluorescence intensity of the contents of the lower chamber and adding the two values together. Fluorescence intensity was measured with a CytoFluor 2300 fluorescent plate reader (Millipore Corp. Bedford, Mass.) configured to read a Corning 96-well plate using the 485-20 nm excitation filter and a 530-25 emission filter, with the sensitivity set at 3.

Data set [4] deals with IL-8. Nature of the data set: Radioimmune precipitation test (RIP): capture of soluble 125I-IL-8. Type of data set: binding, human. The protocol: The ability of these monoclonal antibodies to capture soluble ^125 I-IL-8 was assessed by a radioimmune precipitation test (RIP). Briefly, tracer ^125 I-IL-8 (4×10^4 cpm) was incubated with various dilutions of the monoclonal anti-IL-8 antibodies in 0.2 ml of PBS containing 0.5% BSA and 0.05% Tween 20 (assay buffer) for 1 hr at room temperature. One hundred microliters of a predetermined concentration of goat anti-mouse Ig antisera (Pel-Freez, Rogers, Ariz.) were added and the mixture was incubated at room temperature for 1 hr. Immune complexes were precipitated by the addition of 0.5 ml of 6% polyethylene glycol (M.W. 8000) kept at 4° C. After centrifugation at 2,000×g for 20 min at 4° C., the supernatant was removed by aspiration and the radioactivity remaining in the pellet was counted in a gamma counter. Percent specific binding was calculated as (precipitated cpm--background cpm)/(total cpm--background cpm).

Data set [5] deals with IL-8. Nature of the data set: Receptor binding assay: 125I-IL-8 bound to human neutrophils in presence of mAbs. Particulars: 1:25 molar ratio of IL-8 to mAb. The procedure:
To assess the ability of these monoclonal antibodies to neutralize IL-8 activity, the amount of ^125 I-IL-8 bound to human neutrophils in the presence of various amounts of culture supernatants and purified monoclonal antibodies was measured. Neutrophils were prepared by using Mono-Poly Resolving Medium (M-PRM) (Flow Lab. Inc., McLean, Va). Briefly fresh, heparinized human blood was loaded onto M-PRM at a ratio of blood to medium, 3.5:3.0, and centrifuged at 300×g for 30 min at room temperature. Neutrophils enriched at the middle layer were collected and washed once in PBS. Such a preparation routinely contained greater than 95% neutrophils according to the Wright's Giemsa staining. The receptor binding assay was done as follows. 50 μl of ^125 I-IL-8 (5 ng/ml) was incubated with 50 μl of unlabeled IL-8 (100 μg/ml) or monoclonal antibodies in PBS containing 0.1% BSA for 30 min at room temperature. The mixture was then incubated with 100 μl of neutrophils (10^7 cells/ml) for 15 min at 37° C. The ^125 I-IL-8 bound was separated from the unbound material by loading mixtures onto 0.4 ml of PBS containing 20% sucrose and 0.1% BSA and by centrifugation at 300×g for 15 min. The supernatant was removed by aspiration and the radioactivity associated with the pellet was counted in a gamma counter.

The subject of data set [6] is Human IL-8. Nature of the data set: IL-8 mediated release of elastase by neutrophils (mAb 5.12.14). Type of data set: cell-based. Particulars: 1:1 ratio of IL-8 to mAb. The protocol:
One of the antibodies, mAb 5.12.14, was further studied to determine whether it could block the IL-8 mediated release of elastase by neutrophils. Briefly, human neutrophils were resuspended in Hanks balanced salt solution (Gibco, Grand Island, N.Y.) containing 1.0% BSA, Fraction V (Sigma, St. Louis, Mo.), 2 mg/ml alpha-D-glucose (Sigma), 4.2 mM sodium bicarbonate (Sigma) and 0.01M HEPES, pH 7.1 (JRH Bioscience, Lenexa, Kans.). A stock of cytochalasin B (Sigma) was prepared (5 mg/ml in dimethylsulfoxide (Sigma) and stored at 2°-8° C. Cytochalasin B was added to the neutrophil preparation to produce a final concentration of 5 μg/ml, and incubated for 15 min at 37° C. Human IL-8 was incubated with mAb 5.12.14 (20 μl), or a negative control antibody, in 1 ml polypropylene tubes (DBM Scientific, San Fernando, Calif.) for 30 min at 37° C. The final assay concentrations of IL-8 were 50 and 500 nM. The monoclonal antibodies were diluted to produce the following ratios (IL-8:Mab): 1:50, 1:10, 1:2, 1:1, and 1:0.25. Cytochalasin B-treated neutrophils were added (100 μl/tube) and incubated for 2 hours at 25° C. The tubes were centrifuged (210×g, 2°-8° C.) for 10 min, and supernatants were transferred to 96 well tissue culture plates (30 μl/well). […] Absorbance was measured at 405 nm (SLT 340 ATTC plate reader, SLT Lab Instruments, Austria).

In data set [7] the test system is IL-8. Kind of data set: Neutrophil chemotaxis induced by IL-8, Boyden chamber method. Type of data set: cell-based, human. Particulars: 1:10 ratio of IL-8 to mAb; IL-8 20 nM. The procedure: The ability of the anti-IL-8 antibodies to block neutrophil chemotaxis induced by IL-8 was tested as follows. Neutrophil chemotaxis induced by IL-8 was determined using a Boyden chamber method (Larsen, et al., Science 243:1464 (1989)). One hundred μl of human neutrophils (10^6 cells/ml) resuspended in RPMI containing 0.1% BSA were placed in the upper chamber and 29 μl of the IL-8 (20 nM) with or without monoclonal antibodies were placed in the lower chamber. Cells were incubated for 1 hr at 37° C. Neutrophils migrated into the lower chamber were stained with Wright's Giemsa stain and counted under the microscope (100×magnification). Approximately 10 different fields per experimental group were examined. Neutralizing monoclonal antibodies 5.12.14 and 4.1.3 blocked almost 70% of the neutrophil chemotactic activity of IL-8 at 1:10 ratio of IL-8 to mAb.

For data set [8], the system named is IL-8. Nature of the data set: Competitive binding ELISA (epitopes), biotinylated mAb vs unlabeled mAb. Further details: species or system human. Particulars: ratio of biotinylated mAb to unlabeled mAb 1:100. The procedure:
To assess whether these monoclonal antibodies bound to the same epitopes, a competitive binding ELISA was performed. […] Thus, mAb 4.1.3 and mAb 5.2.3 bind to a different epitope(s) than the epitope recognized by monoclonal antibodies 12.3.9, 4.8 and 5.12.14.

The nature of data set [9]: Isoelectric focusing (IEF) pattern. Type of data set: physicochemical. Particulars: IEF polyacrylamide gel pH 3-9. The protocol:
The isoelectric focusing (IEF) pattern of each mAb was determined by applying purified antibodies on an IEF polyacrylamide gel (pH 3-9, Pharmacia) using the Fast gel system (Pharmacia, Piscataway, N.J.). The IEF gel was pretreated with pharmalyte containing 1% Triton X100 (Sigma, St. Louis, Mo.) for 10 min before loading the samples. The IEF pattern was visualized by silver staining according to the instructions from the manufacturer. All of the monoclonal antibodies had different IEF patterns, confirming that they originated from different clones.

B1: anti-IL-8 monoclonal antibody 5.12.14 (antibody, V domains shown)
VH: EVQLVESGGGLVPPGGSLKLSCAASGFIFSSYGMSWVRQTPGKSLELVATINNNGDSTYYPDSVKGRFTISRDNAKNTLYLQMSSLKSEDTAMFYCARALISSATWFGYWGQGTLVTVSA
VL: DIVMTQSQKFMSTSVGDRVSVTCKASQNVGTNVAWYQQKPGQSPKALIYSSSYRYSGVPDRFTGSGSGTDFTLTISHVQSEDLADYFCQQYNIYPLTFGPGTKLELKR
As to B1, in data set [1], the equilibrium dissociation constant (Kd) is 0.3 nM. For the same molecule, the neutrophil chemotaxis induced by IL-8 (Boyden chamber) in data set [2] came to 70%.

B2: 6G.4.25 Fab (antibody)
heavy: EIQLQQSGPELMKPGASVKISCKASGYSFSSHYMHWVKQSHGKSLEWIGYIDPSNGETTYNQKFKGKATLTVDTSSSTANVHLSSLTSDDSAVYFCARGDYRYNGDWFFDVWGAGTTVTVSSASTKGPSVFPLAPSSKSTSGGTAALGCLVKDYFPEPVTVSWNSGALTSGVHTFPAVLQSSGLYSLSSVVTVPSSSLGTQTYICNVNHKPSNTKVDKKVEPKSCDKTHT
light: DIVMTQTPLSLPVSLGDQASISCRSSQSLVHGIGNTYLHWYLQKPGQSPKLLIYKVSNRFSGVPDRFSGSGSGTDFTLRISRVEAEDLGLYFCSQSTHVPLTFGAGTKLELKRAVAAPTVFIFPPSSEQLKSGTASVVCLLNNFYPREAKVQWKVDNALQSGNSQESVTEQDSKDSTYSLSSTLTLSKADYEKHKVYACEVTHQGLSSPVTKSFNRGEC
In the case of B2, the “inhibition of human IL-8 mediated neutrophil chemotaxis” value in the data set with Human IL-8 [3] is given as “inhibition”.

B3: mAb 5.12.14: murine monoclonal antibody against human IL-8, isotype IgG2a, hybridoma ATCC HB 11553 (antibody, V domains shown)
VH: ASGFIFSSYGMSWVRQTPGKSLELVATINNNGDSTYYPDSVKGRFTISRDNAKNTLYLQMSSLKSEDTAMFYCARALISSATWFGYWGQGTLVTVSAAKTTAPSVYP
VL: KASQNVGTNVAWYQQKPGQSPKALIYSSSYRYSGVPDRFTGSGSGTDFTLTISHVQSEDLADYFCQQYNIYPLTFGPGTKLELKRADAAPPTVSIFPPFE
For B3, the “capture of soluble 125I-IL-8 in the RIP” value with IL-8 [4] was “very efficiently”. For the same molecule, in the data set with IL-8 [4] (RIP, soluble 125I-IL-8), the “% Specific Binding to IL-8” value turned out to be 98%. Further, in the data set on IL-8 [5], the “inhibition of the binding of IL-8 to human neutrophils” value is reported as “greater than 85%”. For the same molecule, the “block of release of elastase from neutrophils” value with Human IL-8 [6] is “effectively block”. Further, the “block of the neutrophil chemotactic activity of IL-8” value in the data set on IL-8 [7] was around 70%. In addition, in the data set on IL-8 [8], the “inhibition of binding of biotinylated mAb 4.1.3 by unlabeled mAb” value was “not by mAb 5.12.14” and the “inhibition of binding of biotinylated mAb 5.12.14 by unlabeled mAb” value is “significantly inhibited”. In addition, in [9], the pI is listed as 6.2-7.4.

B4: 5.12.14 Fab (antibody)
heavy: EVQLVESGGGLVPPGGSLKLSCAASGFIFSSYGMSWVRQTPGKSLELVATINNNGDSTYYPDSVKGRFTISRDNAKNTLYLQMSSLKSEDTAMFYCARALISSATWFGYWGQGTLVTVSAASTKGPSVFPLAPSSKSTSGGTAALGCLVKDYFPEPVTVSWNSGALTSGVHTFPAVLQSSGLYSLSSVVTVPSSSLGTQTYICNVNHKPSNTKVDKKVEPKSCDKTHT
light: B3 VL
As to B4, the “inhibition of human IL-8 mediated neutrophil chemotaxis” value in the data set on Human IL-8 [3] is listed as “inhibition”.
